The values below come from IntAct's records for PubMed 31515488.

To fix the notation:
B1: Melanoma-associated antigen 8 (Homo sapiens), P43361 (parent)
chain: MLLGQKSQRYKAEEGLQAQGEAPGLMDVQIPTAEEQKAASSSSTLIMGTLEEVTDSGSPSPPQSPEGASSSLTVTDSTLWSQSDEGSSSNEEEGPSTSPDPAHLESLFREALDEKVAELVRFLLRKYQIKEPVTKAEMLESVIKNYKNHFPDIFSKASECMQVIFGIDVKEVDPAGHSYILVTCLGLSYDGLLGDDQSTPKTGLLIIVLGMILMEGSRAPEEAIWEALSVMGLYDGREHSVYWKLRKLLTQEWVQENYLEYRQAPGSDPVRYEFLWGPRALAETSYVKVLEHVVRVNARVRISYPSLHEEALGEEKGV
partner: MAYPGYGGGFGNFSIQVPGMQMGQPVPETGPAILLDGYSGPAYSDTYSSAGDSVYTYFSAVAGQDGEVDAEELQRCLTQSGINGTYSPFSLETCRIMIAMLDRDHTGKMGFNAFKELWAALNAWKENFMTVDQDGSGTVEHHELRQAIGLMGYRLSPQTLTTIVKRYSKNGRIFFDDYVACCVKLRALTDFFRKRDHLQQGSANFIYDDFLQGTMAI
B2: ATP synthase mitochondrial F1 complex assembly factor 2 (Homo sapiens), Q8N5M1 (parent)
chain: MWRSCLRLRDGGRRLLNRPAGGPSASMSPGPTIPSPARAYAPPTERKRFYQNVSITQGEGGFEINLDHRKLKTPQAKLFTVPSEALAIAVATEWDSQQDTIKYYTMHLTTLCNTSLDNPTQRNKDQLIRAAVKFLDTDTICYRVEEPETLVELQRNEWDPIIEWAEKRYGVEISSSTSIMGPSIPAKTREVLVSHLASYNTWALQGIEFVAAQLKSMVLTLGLIDLRLTVEQAVLLSRLEEEYQIQKWGNIEWAHDYELQELRARTAAGTLFIHLCSESTTVKHKLLKE
partner: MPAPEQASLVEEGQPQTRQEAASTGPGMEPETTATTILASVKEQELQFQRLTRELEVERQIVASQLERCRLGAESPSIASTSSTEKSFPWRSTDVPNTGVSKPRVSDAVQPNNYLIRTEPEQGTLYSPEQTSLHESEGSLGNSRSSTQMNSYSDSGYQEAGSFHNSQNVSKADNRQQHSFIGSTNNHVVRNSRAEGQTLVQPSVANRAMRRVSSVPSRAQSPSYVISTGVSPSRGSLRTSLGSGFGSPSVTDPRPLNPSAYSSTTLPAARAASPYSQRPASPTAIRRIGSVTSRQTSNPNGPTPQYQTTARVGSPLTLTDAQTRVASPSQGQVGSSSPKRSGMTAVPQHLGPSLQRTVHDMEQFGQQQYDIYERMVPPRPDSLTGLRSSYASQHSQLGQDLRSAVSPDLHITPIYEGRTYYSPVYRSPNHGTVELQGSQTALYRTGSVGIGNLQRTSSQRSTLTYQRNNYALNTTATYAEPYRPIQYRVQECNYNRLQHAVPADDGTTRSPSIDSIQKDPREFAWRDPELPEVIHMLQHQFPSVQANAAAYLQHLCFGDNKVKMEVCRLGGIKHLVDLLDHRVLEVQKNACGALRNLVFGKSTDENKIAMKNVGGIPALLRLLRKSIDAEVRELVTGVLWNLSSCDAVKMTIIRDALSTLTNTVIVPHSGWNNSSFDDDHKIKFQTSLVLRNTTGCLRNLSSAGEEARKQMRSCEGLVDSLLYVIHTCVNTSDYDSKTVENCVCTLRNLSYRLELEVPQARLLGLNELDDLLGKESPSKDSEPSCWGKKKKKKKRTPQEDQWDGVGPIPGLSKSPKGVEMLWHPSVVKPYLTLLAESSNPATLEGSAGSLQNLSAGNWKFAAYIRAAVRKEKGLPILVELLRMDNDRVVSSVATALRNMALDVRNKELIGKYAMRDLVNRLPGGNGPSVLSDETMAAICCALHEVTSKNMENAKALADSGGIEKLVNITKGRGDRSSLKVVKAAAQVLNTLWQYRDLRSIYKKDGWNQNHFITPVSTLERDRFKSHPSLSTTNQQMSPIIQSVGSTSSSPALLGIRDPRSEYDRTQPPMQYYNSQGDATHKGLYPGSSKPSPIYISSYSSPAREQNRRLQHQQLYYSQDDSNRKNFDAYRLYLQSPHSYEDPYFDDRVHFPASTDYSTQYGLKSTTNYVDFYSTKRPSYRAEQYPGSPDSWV
B3: "Guanine nucleotide-binding protein G(T) subunit gamma-T1" (Homo sapiens), P63211 (parent)
chain: MPVINIEDLTEKDKLKMEVDQLKKEVTLERMLVSKCCEEVRDYVEERSGEDPLVKGIPEDKNPFKELKGGCVIS
partner: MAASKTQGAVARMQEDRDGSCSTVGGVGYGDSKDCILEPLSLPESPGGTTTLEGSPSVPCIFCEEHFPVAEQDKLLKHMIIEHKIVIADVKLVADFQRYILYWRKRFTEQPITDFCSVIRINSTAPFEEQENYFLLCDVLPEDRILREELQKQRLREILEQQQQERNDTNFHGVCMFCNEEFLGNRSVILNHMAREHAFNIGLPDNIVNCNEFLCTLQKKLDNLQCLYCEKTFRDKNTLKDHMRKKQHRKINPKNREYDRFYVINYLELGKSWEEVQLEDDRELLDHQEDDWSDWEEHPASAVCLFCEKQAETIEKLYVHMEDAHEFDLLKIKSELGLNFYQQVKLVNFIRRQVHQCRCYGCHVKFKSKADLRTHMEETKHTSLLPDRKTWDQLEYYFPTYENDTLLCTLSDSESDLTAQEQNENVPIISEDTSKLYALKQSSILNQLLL
B4: Rho guanine nucleotide exchange factor 3 (Homo sapiens), Q9NR81 (parent)
chain: MVAKDYPFYLTVKRANCSLELPPASGPAKDAEEPSNKRVKPLSRVTSLANLIPPVKATPLKRFSQTLQRSISFRSESRPDILAPRPWSRNAAPSSTKRRDSKLWSETFDVCVNQMLTSKEIKRQEAIFELSQGEEDLIEDLKLAKKAYHDPMLKLSIMTEQELNQIFGTLDSLIPLHEELLSQLRDVRKPDGSTEHVGPILVGWLPCLSSYDSYCSNQVAAKALLDHKKQDHRVQDFLQRCLESPFSRKLDLWNFLDIPRSRLVKYPLLLREILRHTPNDNPDQQHLEEAINIIQGIVAEINTKTGESECRYYKERLLYLEEGQKDSLIDSSRVLCCHGELKNNRGVKLHVFLFQEVLVITRAVTHNEQLCYQLYRQPIPVKDLLLEDLQDGEVRLGGSLRGAFSNNERIKNFFRVSFKNGSQSQTHSLQANDTFNKQQWLNCIRQAKETVLCAAGQAGVLDSEGSFLNPTTGSRELQGETKLEQMDQSDSESDCSMDTSEVSLDCERMEQTDSSCGNSRHGESNV
partner: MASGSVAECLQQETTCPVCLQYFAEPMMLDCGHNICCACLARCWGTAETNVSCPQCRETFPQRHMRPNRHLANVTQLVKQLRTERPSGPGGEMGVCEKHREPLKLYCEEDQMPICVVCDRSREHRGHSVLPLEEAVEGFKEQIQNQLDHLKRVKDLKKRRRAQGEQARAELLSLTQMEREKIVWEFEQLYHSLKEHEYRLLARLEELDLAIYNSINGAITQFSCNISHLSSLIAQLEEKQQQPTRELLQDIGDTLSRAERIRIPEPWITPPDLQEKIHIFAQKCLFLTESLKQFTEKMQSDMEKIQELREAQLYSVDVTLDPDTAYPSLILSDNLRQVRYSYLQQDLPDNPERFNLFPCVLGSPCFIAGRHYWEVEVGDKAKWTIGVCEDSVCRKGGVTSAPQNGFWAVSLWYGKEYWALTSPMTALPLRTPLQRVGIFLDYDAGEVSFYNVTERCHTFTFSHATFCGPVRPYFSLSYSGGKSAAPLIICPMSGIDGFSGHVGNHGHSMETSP
B5: Docking protein 2 (Homo sapiens), O60496 (parent)
chain: MGDGAVKQGFLYLQQQQTFGKKWRRFGASLYGGSDCALARLELQEGPEKPRRCEAARKVIRLSDCLRVAEAGGEASSPRDTSAFFLETKERLYLLAAPAAERGDWVQAICLLAFPGQRKELSGPEGKQSRPCMEENELYSSAVTVGPHKEFAVTMRPTEASERCHLRGSYTLRAGESALELWGGPEPGTQLYDWPYRFLRRFGRDKVTFSFEAGRRCVSGEGNFEFETRQGNEIFLALEEAISAQKNAAPATPQPQPATIPASLPRPDSPYSRPHDSLPPPSPTTPVPAPRPRGQEGEYAVPFDAVARSLGKNFRGILAVPPQLLADPLYDSIEETLPPRPDHIYDEPEGVAALSLYDSPQEPRGEAWRRQATADRDPAGLQHVQPAGQDFSASGWQPGTEYDNVVLKKGPK
partner: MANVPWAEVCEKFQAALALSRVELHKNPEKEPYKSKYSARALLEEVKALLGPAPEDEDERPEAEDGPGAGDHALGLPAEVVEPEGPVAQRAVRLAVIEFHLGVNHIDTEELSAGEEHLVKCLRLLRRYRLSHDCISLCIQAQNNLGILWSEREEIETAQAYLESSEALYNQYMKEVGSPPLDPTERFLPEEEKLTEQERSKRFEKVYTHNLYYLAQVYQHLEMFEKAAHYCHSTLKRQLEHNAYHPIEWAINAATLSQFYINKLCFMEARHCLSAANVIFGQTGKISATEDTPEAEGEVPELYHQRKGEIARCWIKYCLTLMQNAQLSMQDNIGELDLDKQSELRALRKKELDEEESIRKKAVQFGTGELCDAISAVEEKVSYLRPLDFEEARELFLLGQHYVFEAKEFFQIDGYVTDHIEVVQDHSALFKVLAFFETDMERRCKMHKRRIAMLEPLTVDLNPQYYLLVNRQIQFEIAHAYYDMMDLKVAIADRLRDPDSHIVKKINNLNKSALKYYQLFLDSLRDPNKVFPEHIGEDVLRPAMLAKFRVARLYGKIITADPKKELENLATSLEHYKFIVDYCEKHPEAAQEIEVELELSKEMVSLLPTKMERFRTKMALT
B6: Notch homolog 2 N-terminal-like protein A (Homo sapiens), Q7Z3S9 (parent)
chain: MCVTYHNGTGYCKCPEGFLGEYCQHRDPCEKNRCQNGGTCVAQAMLGKATCRCASGFTGEDCQYSTSHPCFVSRPCLNGGTCHMLSRDTYECTCQVGFTGKECQWTDACLSHPCANGSTCTTVANQFSCKCLTGFTGQKCETDVNECDIPGHCQHGGTCLNLPGSYQCQCLQGFTGQYCDSLYVPCAPSPCVNGGTCRQTGDFTFECNCLPETVRRGTELWERDREVWNGKEHDEN
partner: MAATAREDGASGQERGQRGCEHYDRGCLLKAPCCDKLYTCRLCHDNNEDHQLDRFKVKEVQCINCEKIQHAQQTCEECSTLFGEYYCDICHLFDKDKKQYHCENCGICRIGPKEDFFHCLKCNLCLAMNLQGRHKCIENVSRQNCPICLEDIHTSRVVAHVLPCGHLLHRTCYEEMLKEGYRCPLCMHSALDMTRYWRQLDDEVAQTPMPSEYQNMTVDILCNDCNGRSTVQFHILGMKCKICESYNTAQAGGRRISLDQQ
B7: Zinc finger CCCH-type with G patch domain-containing protein (Homo sapiens), Q8N5A5 (parent)
chain: MDEESLESALQTYRAQLQQVELALGAGLDSSEQADLRQLQGDLKELIELTEASLVSVRKSSLLAALDEERPGRQEDAEYQAFREAITEAVEAPAAARGSGSETVPKAEAGPESAAGGQEEEEGEDEEELSGTKVSAPYYSSWGTLEYHNAMVVGTEEAEDGSAGVRVLYLYPTHKSLKPCPFFLEGKCRFKENCRFSHGQVVSLDELRPFQDPDLSSLQAGSACLAKHQDGLWHAARITDVDNGYYTVKFDSLLLREAVVEGDGILPPLRTEATESDSDSDGTGDSSYARVVGSDAVDSAQSSALCPSLAVVGSDAVDSGTCSSAFAGWEVHTRGIGSRLLTKMGYEFGKGLGRHAEGRVEPIHAVVLPRGKSLDQCVETLQKQTRVGKAGTNKPPRCRGRGARPGGRPAPRNVFDFLNEKLQGQAPGALEAGAAPAGRRSKDMYHASKSAKRALSLRLFQTEEKIERTQRDIRSIQEALARNAGRHSVASAQLQEKLAGAQRQLGQLRAQEAGLQQEQRKADTHKKMTEF
partner: B4 partner
B8: Sperm microtubule associated protein 2 (Homo sapiens), Q9P2T0 (parent)
chain: MGDSRRRSLGNQPSSEAAGRSEREQDGDPRGLQSSVYESRRVTDPERQDLDNAELGPEDPEEELPPEEVAGEEFPETLDPKEALSELERVLDKDLEEDIPEISRLSISQKLPSTTMTKARKRRRRRRLMELAEPKINWQVLKDRKGRCGKGYAWISPCKMSLHFCLCWPSVYWTERFLEDTTLTITVPAVSRRVEELSRPKRFYLEYYNNNRTTPVWPIPRSSLEYRASSRLKELAAPKIRDNFWSMPMSEVSQVSRAAQMAVPSSRILQLSKPKAPATLLEEWDPVPKPKPHVSDHNRLLHLARPKAQSDKCVPDRDPRWEVLDVTKKVVASPRIISLAKPKVRKGLNEGYDRRPLASMSLPPPKASPEKCDQPRPGL

The first experiment covers variants of B1. Particulars: with gran_human GCA.
Consider R9C, for which the “effect of a mutation on the interaction” value was “with no effect”.

Variants of B2 are the subject of the next experiment. Particulars: with pkp4_human PKP4, Q99569.
As to E241G, the “effect of a mutation on the interaction” value is on record as “with no effect”.

In a further experiment the parent is B3. Particulars: with zn277_human ZNF277, Q9NRM2.
As for E50K, the “effect of a mutation on the interaction” value is given as “with no effect”.

Variants of B4 are the subject of another experiment. Particulars: with tri27_human TRIM27, P14373.
With N432S, the “effect of a mutation on the interaction” value is “with no effect”.

In a further experiment the parent is B5. The note with it: with kbp_human KIFBP.
As for P274L, the “effect of a mutation on the interaction” value is “disrupting interaction strength”.

Another experiment covers variants of B6. Particulars: with zn363_human RCHY1, Q96PM5.
Take A115T: the “effect of a mutation on the interaction” value is “with no effect”.
With R74Q, the “effect of a mutation on the interaction” value was “with no effect”.

A further experiment covers variants of B7. The note with it: with tri27_human TRIM27, P14373.
In the case of S61R, the “effect of a mutation on the interaction” value is “with no effect”.

The variants in the next experiment derive from B8. Particulars: with fhl3_human FHL3, Q13643.
Chain of fhl3_human FHL3, Q13643 (Q13643 whole entry): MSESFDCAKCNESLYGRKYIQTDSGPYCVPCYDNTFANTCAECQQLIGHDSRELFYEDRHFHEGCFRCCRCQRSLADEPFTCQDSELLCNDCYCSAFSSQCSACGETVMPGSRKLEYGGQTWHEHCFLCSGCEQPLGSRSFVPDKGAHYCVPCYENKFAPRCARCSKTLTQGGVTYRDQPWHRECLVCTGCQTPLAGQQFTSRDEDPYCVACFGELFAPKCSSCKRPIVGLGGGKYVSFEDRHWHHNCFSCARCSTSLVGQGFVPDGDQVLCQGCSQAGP
As for D79G, the “effect of a mutation on the interaction” value is recorded as “with no effect”.
On the same count and under the same terms, then L131R, with “with no effect”; and R147C, with “with no effect”.
